Results taken from patent publication US20250353920A1 (SUBDOMAIN, published 2025).

T1: CD123 (Homo sapiens (Human), UniProt P26951 19-305, limits assumed)
T1 sequence: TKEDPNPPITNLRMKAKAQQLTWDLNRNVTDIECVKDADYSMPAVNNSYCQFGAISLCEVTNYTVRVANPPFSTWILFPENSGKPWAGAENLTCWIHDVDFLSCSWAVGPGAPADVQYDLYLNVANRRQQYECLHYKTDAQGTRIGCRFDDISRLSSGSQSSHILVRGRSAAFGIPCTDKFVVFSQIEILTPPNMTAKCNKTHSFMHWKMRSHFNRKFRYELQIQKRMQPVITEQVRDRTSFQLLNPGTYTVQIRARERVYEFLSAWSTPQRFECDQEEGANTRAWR

B1: SEQ ID NO 101 (designed binder)
chain: MGSWTEFDRRLDAIWDRLFALGGSEAELAAFEKEIAAFESELQAYKGKGNPEVEWLREEAADIRDYLQAYRHN
notes: DBDpp, library F3
B2: SEQ ID NO 102 (designed binder)
chain: MGSWTEFDRRLDAIWDRLFALGGSEAELAAFEKEIAAFESELQAYKGKGNPEVEWLREEAADIRDYLQAYRHN
notes: DBDpp, library F3
B3: SEQ ID NO 114 (designed binder)
chain: MGSWTEFDRRLDAIWDRLFALGGSEAELAAFEKEIAAFESELQAYKGKGNPEVEWLREEAADIRDYLQAYRHN
notes: DBDpp, library F3
B4: bb10 (designed binder)
chain: MGSWAEFKQRLAAIKTRLEALGGSEAELAAFLGEIWAFEMELAAYKGKGNPEVEALGREAAAIRMELQAYRHN

Assays:
CD123 = target: T1, CD123; assay: library selection; assay not told
control (IgG Fc) [1] = assay: phage ELISA, 89 identical clones, control wells
control (IgG Fc) [2] = assay: phage ELISA, control wells, lower end of the distribution
control (IgG Fc) [3] = assay: phage ELISA, control wells, upper end of the distribution

Binder | binding result (CD123) | ELISA absorbance (control (IgG Fc) [1]) [OD] | ELISA absorbance (control (IgG Fc) [2]) [OD] | ELISA absorbance (control (IgG Fc) [3]) [OD]
B1 | binds | – | – | –
B2 | binds | – | – | –
B3 | binds | – | – | –
B4 | – | 0.067 | 0.056 | 0.125
